Numbered stars: 1 amine (or outer) side, 2 acyl side, 3 side chain; on linkers, the order of the positions; unused ones are H or OH. Bridge positions count the residues as written; N and C are the ends. Side chains are listed from the residue outwards. Ends that are not written are not given here. * marks the point of attachment. C20 diacid = O=C(O)CCCCCCCCCCCCCCCCCCC(=O)*; γGlu = O=C(O)[C@H](CCC(=O)[*:2])N[*:1]
T1: human calcitonin receptor (human, UniProt P30988 25-474)
T1 construct: whole, on cells; also called hCTR; hCT
T1 sequence (looked up): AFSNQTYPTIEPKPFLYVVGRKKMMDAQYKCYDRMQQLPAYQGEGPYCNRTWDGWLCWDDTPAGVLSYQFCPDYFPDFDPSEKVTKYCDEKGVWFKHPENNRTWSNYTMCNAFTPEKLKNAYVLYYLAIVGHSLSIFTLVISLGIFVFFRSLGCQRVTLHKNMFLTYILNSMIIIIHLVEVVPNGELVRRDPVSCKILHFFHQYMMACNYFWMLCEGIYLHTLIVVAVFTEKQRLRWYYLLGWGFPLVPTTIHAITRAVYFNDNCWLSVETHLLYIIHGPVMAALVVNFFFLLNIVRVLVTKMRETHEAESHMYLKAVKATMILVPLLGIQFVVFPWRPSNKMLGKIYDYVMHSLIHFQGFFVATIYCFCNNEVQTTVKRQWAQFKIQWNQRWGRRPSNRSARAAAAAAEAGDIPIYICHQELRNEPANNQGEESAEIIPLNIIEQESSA


Key:
[1] = target: T1, human calcitonin receptor; test: SPA radioligand competition (125I-calcitonin), membranes of BHK cells with human calcitonin receptor
Procedure, shortened: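 BHK hCTR membranes 35 ng/μL + SPA beads 0.05 mg/well; buffer 50 mM Hepes pH 7.4, 1 mM CaCl2, 5 mM MgCl₂, 0.1% OA, 0.02% Tween20. 120 min, 25° C., shaking. Scintillation count; IC50 by one-site binding competition.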

[2] = target: T1, human calcitonin receptor; test: ratio of IC50 at human calcitonin receptor to IC50 at human amylin receptor (SPA competition assays)
Procedure, shortened: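 Scintillation proximity competition binding on cell membranes at 35 ng/μL with SPA beads, in 50 mM Hepes pH 7.4, 1 mM CaCl2, 5 mM MgCl₂, 0.1% OA, 0.02% Tween20. Incubated 120 min at 25° C with shaking. IC₅₀ from one-site competition fit.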

| Binder | IC50 [1] [nM] | Ratio hCT/hAmylin binding [2] |
| --- | --- | --- |
| K([γGlu-C20 diacid])CNTATCATQRLAHFLRHSSPNFGAIPSSTNVGHNTY-NH2 (disulfide 2-7; N-terminus assumed; SMILES CC[C@H](C)[C@H](NC(=O)[C@H](C)NC(=O)CNC(=O)[C@H](Cc1ccccc1)NC(=O)[C@H](CC(N)=O)NC(=O)[C@@H]1CCCN1C(=O)[C@H](CO)NC(=O)[C@H](CO)NC(=O)[C@H](Cc1c[nH]cn1)NC(=O)[C@H](CCCNC(=N)N)NC(=O)[C@H](CC(C)C)NC(=O)[C@H](Cc1ccccc1)NC(=O)[C@H](Cc1c[nH]cn1)NC(=O)[C@H](C)NC(=O)[C@H](CC(C)C)NC(=O)[C@H](CCCNC(=N)N)NC(=O)[C@H](CCC(N)=O)NC(=O)[C@@H](NC(=O)[C@H](C)NC(=O)[C@@H]1CSSC[C@H](NC(=O)[C@@H](N)CCCCNC(=O)CC[C@H](NC(=O)CCCCCCCCCCCCCCCCCCC(=O)O)C(=O)O)C(=O)N[C@@H](CC(N)=O)C(=O)N[C@@H]([C@@H](C)O)C(=O)N[C@@H](C)C(=O)N[C@@H]([C@@H](C)O)C(=O)N1)[C@@H](C)O)C(=O)N1CCC[C@H]1C(=O)N[C@@H](CO)C(=O)N[C@@H](CO)C(=O)N[C@H](C(=O)N[C@@H](CC(N)=O)C(=O)N[C@H](C(=O)NCC(=O)N[C@@H](Cc1c[nH]cn1)C(=O)N[C@@H](CC(N)=O)C(=O)N[C@H](C(=O)N[C@@H](Cc1ccc(O)cc1)C(N)=O)[C@@H](C)O)C(C)C)[C@@H](C)O, also called compound 81) | 23.6 | 87.2 |
| K([γGlu-γGlu-C20 diacid])CNTATCATQRLANFLRHSSPNFGAIPSSTPVGPRTY-NH2 (disulfide 2-7; N-terminus assumed; SMILES CC[C@H](C)[C@H](NC(=O)[C@H](C)NC(=O)CNC(=O)[C@H](Cc1ccccc1)NC(=O)[C@H](CC(N)=O)NC(=O)[C@@H]1CCCN1C(=O)[C@H](CO)NC(=O)[C@H](CO)NC(=O)[C@H](Cc1c[nH]cn1)NC(=O)[C@H](CCCNC(=N)N)NC(=O)[C@H](CC(C)C)NC(=O)[C@H](Cc1ccccc1)NC(=O)[C@H](CC(N)=O)NC(=O)[C@H](C)NC(=O)[C@H](CC(C)C)NC(=O)[C@H](CCCNC(=N)N)NC(=O)[C@H](CCC(N)=O)NC(=O)[C@@H](NC(=O)[C@H](C)NC(=O)[C@@H]1CSSC[C@H](NC(=O)[C@@H](N)CCCCNC(=O)CC[C@H](NC(=O)CC[C@H](NC(=O)CCCCCCCCCCCCCCCCCCC(=O)O)C(=O)O)C(=O)O)C(=O)N[C@@H](CC(N)=O)C(=O)N[C@@H]([C@@H](C)O)C(=O)N[C@@H](C)C(=O)N[C@@H]([C@@H](C)O)C(=O)N1)[C@@H](C)O)C(=O)N1CCC[C@H]1C(=O)N[C@@H](CO)C(=O)N[C@@H](CO)C(=O)N[C@H](C(=O)N1CCC[C@H]1C(=O)N[C@H](C(=O)NCC(=O)N1CCC[C@H]1C(=O)N[C@@H](CCCNC(=N)N)C(=O)N[C@H](C(=O)N[C@@H](Cc1ccc(O)cc1)C(N)=O)[C@@H](C)O)C(C)C)[C@@H](C)O) | 42.8 | 48.6 |
| K([γGlu-C20 diacid])CNTATCATQRLAHFLRHSSPNFGAIPSSTPVGPNTY-NH2 (disulfide 2-7; N-terminus assumed; SMILES CC[C@H](C)[C@H](NC(=O)[C@H](C)NC(=O)CNC(=O)[C@H](Cc1ccccc1)NC(=O)[C@H](CC(N)=O)NC(=O)[C@@H]1CCCN1C(=O)[C@H](CO)NC(=O)[C@H](CO)NC(=O)[C@H](Cc1c[nH]cn1)NC(=O)[C@H](CCCNC(=N)N)NC(=O)[C@H](CC(C)C)NC(=O)[C@H](Cc1ccccc1)NC(=O)[C@H](Cc1c[nH]cn1)NC(=O)[C@H](C)NC(=O)[C@H](CC(C)C)NC(=O)[C@H](CCCNC(=N)N)NC(=O)[C@H](CCC(N)=O)NC(=O)[C@@H](NC(=O)[C@H](C)NC(=O)[C@@H]1CSSC[C@H](NC(=O)[C@@H](N)CCCCNC(=O)CC[C@H](NC(=O)CCCCCCCCCCCCCCCCCCC(=O)O)C(=O)O)C(=O)N[C@@H](CC(N)=O)C(=O)N[C@@H]([C@@H](C)O)C(=O)N[C@@H](C)C(=O)N[C@@H]([C@@H](C)O)C(=O)N1)[C@@H](C)O)C(=O)N1CCC[C@H]1C(=O)N[C@@H](CO)C(=O)N[C@@H](CO)C(=O)N[C@H](C(=O)N1CCC[C@H]1C(=O)N[C@H](C(=O)NCC(=O)N1CCC[C@H]1C(=O)N[C@@H](CC(N)=O)C(=O)N[C@H](C(=O)N[C@@H](Cc1ccc(O)cc1)C(N)=O)[C@@H](C)O)C(C)C)[C@@H](C)O) | 2.04 | 24.8 |
| K([γGlu-γGlu-C20 diacid])CNTATCATQRLADFLRHSSPNFGAIPSSTNVGPETY-NH2 (disulfide 2-7; N-terminus assumed; SMILES CC[C@H](C)[C@H](NC(=O)[C@H](C)NC(=O)CNC(=O)[C@H](Cc1ccccc1)NC(=O)[C@H](CC(N)=O)NC(=O)[C@@H]1CCCN1C(=O)[C@H](CO)NC(=O)[C@H](CO)NC(=O)[C@H](Cc1c[nH]cn1)NC(=O)[C@H](CCCNC(=N)N)NC(=O)[C@H](CC(C)C)NC(=O)[C@H](Cc1ccccc1)NC(=O)[C@H](CC(=O)O)NC(=O)[C@H](C)NC(=O)[C@H](CC(C)C)NC(=O)[C@H](CCCNC(=N)N)NC(=O)[C@H](CCC(N)=O)NC(=O)[C@@H](NC(=O)[C@H](C)NC(=O)[C@@H]1CSSC[C@H](NC(=O)[C@@H](N)CCCCNC(=O)CC[C@H](NC(=O)CC[C@H](NC(=O)CCCCCCCCCCCCCCCCCCC(=O)O)C(=O)O)C(=O)O)C(=O)N[C@@H](CC(N)=O)C(=O)N[C@@H]([C@@H](C)O)C(=O)N[C@@H](C)C(=O)N[C@@H]([C@@H](C)O)C(=O)N1)[C@@H](C)O)C(=O)N1CCC[C@H]1C(=O)N[C@@H](CO)C(=O)N[C@@H](CO)C(=O)N[C@H](C(=O)N[C@@H](CC(N)=O)C(=O)N[C@H](C(=O)NCC(=O)N1CCC[C@H]1C(=O)N[C@@H](CCC(=O)O)C(=O)N[C@H](C(=O)N[C@@H](Cc1ccc(O)cc1)C(N)=O)[C@@H](C)O)C(C)C)[C@@H](C)O) | 8.56 | 49.8 |
| K([γGlu-C20 diacid])CNTATCATQRLAHFLRHSSPNFGAIPSSTNVGSNTY-NH2 (disulfide 2-7; N-terminus assumed; SMILES CC[C@H](C)[C@H](NC(=O)[C@H](C)NC(=O)CNC(=O)[C@H](Cc1ccccc1)NC(=O)[C@H](CC(N)=O)NC(=O)[C@@H]1CCCN1C(=O)[C@H](CO)NC(=O)[C@H](CO)NC(=O)[C@H](Cc1c[nH]cn1)NC(=O)[C@H](CCCNC(=N)N)NC(=O)[C@H](CC(C)C)NC(=O)[C@H](Cc1ccccc1)NC(=O)[C@H](Cc1c[nH]cn1)NC(=O)[C@H](C)NC(=O)[C@H](CC(C)C)NC(=O)[C@H](CCCNC(=N)N)NC(=O)[C@H](CCC(N)=O)NC(=O)[C@@H](NC(=O)[C@H](C)NC(=O)[C@@H]1CSSC[C@H](NC(=O)[C@@H](N)CCCCNC(=O)CC[C@H](NC(=O)CCCCCCCCCCCCCCCCCCC(=O)O)C(=O)O)C(=O)N[C@@H](CC(N)=O)C(=O)N[C@@H]([C@@H](C)O)C(=O)N[C@@H](C)C(=O)N[C@@H]([C@@H](C)O)C(=O)N1)[C@@H](C)O)C(=O)N1CCC[C@H]1C(=O)N[C@@H](CO)C(=O)N[C@@H](CO)C(=O)N[C@H](C(=O)N[C@@H](CC(N)=O)C(=O)N[C@H](C(=O)NCC(=O)N[C@@H](CO)C(=O)N[C@@H](CC(N)=O)C(=O)N[C@H](C(=O)N[C@@H](Cc1ccc(O)cc1)C(N)=O)[C@@H](C)O)C(C)C)[C@@H](C)O, also called compound 70) [N^ε1-[(4S)-4-carboxy-4-(19-carboxynonadecanoylamino)butanoyl]-[His14,Arg17,Pro21,Pro27]-h-amylin] | 10.3 | 60.8 |
| K([γGlu-γGlu-C20 diacid])CNTATCATQRLAEFLRHSSPNFGAIPSSTNVGRNTY-NH2 (disulfide 2-7; N-terminus assumed; SMILES CC[C@H](C)[C@H](NC(=O)[C@H](C)NC(=O)CNC(=O)[C@H](Cc1ccccc1)NC(=O)[C@H](CC(N)=O)NC(=O)[C@@H]1CCCN1C(=O)[C@H](CO)NC(=O)[C@H](CO)NC(=O)[C@H](Cc1c[nH]cn1)NC(=O)[C@H](CCCNC(=N)N)NC(=O)[C@H](CC(C)C)NC(=O)[C@H](Cc1ccccc1)NC(=O)[C@H](CCC(=O)O)NC(=O)[C@H](C)NC(=O)[C@H](CC(C)C)NC(=O)[C@H](CCCNC(=N)N)NC(=O)[C@H](CCC(N)=O)NC(=O)[C@@H](NC(=O)[C@H](C)NC(=O)[C@@H]1CSSC[C@H](NC(=O)[C@@H](N)CCCCNC(=O)CC[C@H](NC(=O)CC[C@H](NC(=O)CCCCCCCCCCCCCCCCCCC(=O)O)C(=O)O)C(=O)O)C(=O)N[C@@H](CC(N)=O)C(=O)N[C@@H]([C@@H](C)O)C(=O)N[C@@H](C)C(=O)N[C@@H]([C@@H](C)O)C(=O)N1)[C@@H](C)O)C(=O)N1CCC[C@H]1C(=O)N[C@@H](CO)C(=O)N[C@@H](CO)C(=O)N[C@H](C(=O)N[C@@H](CC(N)=O)C(=O)N[C@H](C(=O)NCC(=O)N[C@@H](CCCNC(=N)N)C(=O)N[C@@H](CC(N)=O)C(=O)N[C@H](C(=O)N[C@@H](Cc1ccc(O)cc1)C(N)=O)[C@@H](C)O)C(C)C)[C@@H](C)O, also called compound 88) | 34.9 | 46.5 |
